Reference: article PMC6367345 (Scientific Reports, 2019)

Tests used:
[1] = target: MEDI-579 Fab (human); experiment: SPR; BIAcore T100; antibody (MEDI-579 Fab) amine-coupled to a CM3 sensorchip at about 500 RU; serial dilution of PAI-1 between 6.25 nM and 25 pM in HBS-EP+ passed over the surface
[2] = target: human plasminogen activator inhibitor-1 (PAI-1), active (native) form (Homo sapiens, UniProt P05121, glycosylated (SPR preparation))
[3] = target: T1, rat PAI-1 (Rattus norvegicus, UniProt P20961); experiment: SPR; BIAcore T100; antibody (MEDI-579 Fab) amine-coupled to a CM3 sensorchip at about 500 RU; serial dilution of PAI-1 between 6.25 nM and 25 pM in HBS-EP+ passed over the surface; conditions: both partners purified
T1 construct: source: bought: Molecular Innovations (SPR)
T1 sequence (P20961 24-402): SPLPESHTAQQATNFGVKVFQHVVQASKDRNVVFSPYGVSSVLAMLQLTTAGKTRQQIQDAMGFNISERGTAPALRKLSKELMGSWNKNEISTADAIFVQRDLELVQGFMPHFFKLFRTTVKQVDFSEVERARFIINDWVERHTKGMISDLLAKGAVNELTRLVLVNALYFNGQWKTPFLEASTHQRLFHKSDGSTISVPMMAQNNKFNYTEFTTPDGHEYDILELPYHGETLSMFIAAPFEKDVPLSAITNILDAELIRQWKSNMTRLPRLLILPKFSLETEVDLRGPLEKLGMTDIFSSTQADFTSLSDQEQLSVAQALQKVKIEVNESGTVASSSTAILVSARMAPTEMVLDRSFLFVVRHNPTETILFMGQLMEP

Chain of human plasminogen activator inhibitor-1 (PAI-1), active (native) form (Homo sapiens, UniProt P05121, glycosylated (SPR preparation)) (P05121 24-402): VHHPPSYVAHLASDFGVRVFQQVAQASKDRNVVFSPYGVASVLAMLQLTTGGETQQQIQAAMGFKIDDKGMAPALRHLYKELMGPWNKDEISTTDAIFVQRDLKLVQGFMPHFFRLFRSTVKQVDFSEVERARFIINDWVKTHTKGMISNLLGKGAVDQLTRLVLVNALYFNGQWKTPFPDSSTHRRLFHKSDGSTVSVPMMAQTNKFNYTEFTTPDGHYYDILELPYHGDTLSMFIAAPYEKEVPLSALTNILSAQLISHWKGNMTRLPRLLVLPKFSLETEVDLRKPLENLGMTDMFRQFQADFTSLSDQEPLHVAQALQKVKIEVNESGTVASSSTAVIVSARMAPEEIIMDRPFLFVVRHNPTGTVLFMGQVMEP

human plasminogen activator inhibitor-1 (PAI-1), active (native) form (from UniProt P05121 24-402) (natural protein)
Kd [1]: 0.006 nM
koff [1]: 4.18e-05 s⁻¹
kon [1]: 7.02e+06 M⁻¹ s⁻¹

B1: Parent (antibody, V domains shown)
VH: QVQLQQSGAEVKKPGSSVKVSCKASGGTFSSYAISWVRQAPGQGLEWMGGIIPIFDTANYAQKFQGRVTITADESTSTAYMELSSLRSEDTAVYYCAREKRQWLEGHFDYWGRGTLVTVSS
VL: DIQMTQSPSFLSASIGDRVTITCRASEGIYHWLAWYQQKPGKAPKLLIYKASSLASGAPSRFSGSGSGTDFTLTISSLQPDDFATYYCQQYSNYPLTFGGGTKLEIK
binding result [2]: binds

B2: MEDI-579 Fab (Fab, V domains shown)
VH: QVQLVQSGAEVKKPGSSVKVSCKASGGTFSSYAISWVRQAPGQGLEWMGGIIPTFGTANYAQKFQGRVTITADESTSTAYMELSSLRSEDTAVYYCARERRQWLEGHFDYWGRGTLVTVSS
VL: DIQMTQSPSTLSASVGDRVTITCRASEGIYHNLAWYQQKPGKAPKLLIYKASSLASGVPSRFSGSRSGTEFTLTISSLQPDDFATYYCQQYSNYPLTFGGGTKVEIK
notes: heavy chain of the Fab; closest germline IGHV1-69*12; light chain of the Fab; closest germline IGKV1-5*03; The Fab for crystallisation was made by papain digestion of the IgG1
Kd [3]: 0.105 nM
koff [3]: 0.000797 s⁻¹
kon [3]: 7.64e+06 M⁻¹ s⁻¹
